From patent publication US20040235112

Columns and labels:
GST-p38 = GST-p38 (UniProt Q16539)
GST-ATF2 = target: T1, GST-ATF2 (UniProt P15336)
T1 sequence: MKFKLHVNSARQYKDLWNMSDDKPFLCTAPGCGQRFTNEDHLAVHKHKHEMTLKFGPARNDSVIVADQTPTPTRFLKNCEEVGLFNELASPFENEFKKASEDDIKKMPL

GST-cJun(1-79) = GST-cJun(1-79) (UniProt P05412)
GST-JNK2 = GST-JNK2 (UniProt P45984)

Chain of GST-p38 (Q16539 whole entry): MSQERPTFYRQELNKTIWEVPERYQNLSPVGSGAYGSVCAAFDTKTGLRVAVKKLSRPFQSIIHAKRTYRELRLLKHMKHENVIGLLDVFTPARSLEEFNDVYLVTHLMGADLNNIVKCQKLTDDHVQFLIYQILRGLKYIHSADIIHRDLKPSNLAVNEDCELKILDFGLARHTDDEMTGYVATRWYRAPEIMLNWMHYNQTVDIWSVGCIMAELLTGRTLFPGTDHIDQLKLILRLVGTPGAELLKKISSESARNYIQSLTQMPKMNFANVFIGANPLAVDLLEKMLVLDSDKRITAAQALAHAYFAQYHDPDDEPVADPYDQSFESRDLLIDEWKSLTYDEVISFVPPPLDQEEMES
Chain of GST-cJun(1-79) (P05412 1-79): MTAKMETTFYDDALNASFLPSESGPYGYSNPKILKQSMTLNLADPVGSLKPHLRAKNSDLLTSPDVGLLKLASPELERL
Chain of GST [GST: P08515] (P08515 whole entry): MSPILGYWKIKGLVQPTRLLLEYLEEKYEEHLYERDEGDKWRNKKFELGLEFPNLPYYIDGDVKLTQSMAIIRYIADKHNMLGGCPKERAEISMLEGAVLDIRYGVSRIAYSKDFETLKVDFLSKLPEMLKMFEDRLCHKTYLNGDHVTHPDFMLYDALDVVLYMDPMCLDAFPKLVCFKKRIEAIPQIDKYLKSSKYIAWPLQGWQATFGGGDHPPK

Substance	phosphorylation of GST-p38 in immune complex kinase assay (HeLa lysates, anti-HA 12CA5 immunoprecipitate) (GST-p38)	phosphorylation of substrate in in vitro kinase assay ([γ-32P]ATP, SDS-PAGE, autoradiography) (His-ERK1[K52R])	phosphorylation of substrate in in vitro kinase assay ([γ-32P]ATP, SDS-PAGE, autoradiography) (GST-p38)	phosphorylation of GST-ATF2 in coupled in vitro kinase assay (GST-ATF2)	phosphorylation of substrate in in vitro kinase assay ([γ-32P]ATP, SDS-PAGE, autoradiography) (GST [GST: P08515])	phosphorylation of GST-Jun(1-79) in coupled in vitro kinase assay (GST-cJun(1-79))	phosphorylation of substrate in in vitro kinase assay ([γ-32P]ATP, SDS-PAGE, autoradiography) (GST-JNK2)
3xHA-MEK6	MEK6 activation by anisomycin as measured by its ability to phosphorylate p38, was observed as early as 10 min after treatment	–	–	–	–	–	–
GST-MEK6	–	MEK6 efficiently phosphorylated p38 but none of the other substrates	MEK6 efficiently phosphorylated p38 but none of the other substrates	ATF2 was not directly phosphorylated by MEK6	MEK6 efficiently phosphorylated p38 but none of the other substrates	MEK6 did not cause increased phosphorylation of Jun (GST-Jun(1-79) ...) either directly or in combination with JNK2	MEK6 efficiently phosphorylated p38 but none of the other substrates
